Measurements taken from the RNAGym collection of RNA variant scans (doi:10.1093/molbev/msab373).

B1: Azoarcus group I ribozyme (parent)
chain: GUGCCUUGCGCCGGGAAACCACGCAAGGGAUGGUGUCAAAUUCGGCGAAACCUAAGCGCCCGCCCGGGCGUAUGGCAACGCCGAGCCAAGCUUCGGCGCCUGCGCCGAUGAAGGUGUAGAGACUAGACGGCACCCACCUAAGGCAAACGCUAUGGUGAAGGCAUAGUCCAGGGAGUGGCGAAAGUCACACAAACCGG

Variants of: B1
Assay: reverse-splicing fitness (ratio to wild type); higher = more active; in vitro selection; Mg2+ level not given
Summary of the method: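 An in vitro group I ribozyme library with randomized positions was T7-transcribed and gel-purified. In triplicate, 10 pmol RNA in EPPS pH 7.5 was reacted with 50 pmoles of a 30-nt RNA substrate for 1 h at 37 °C across several added MgCl2 levels (1–48 mM), then stopped with EDTA. Products were reverse transcribed from a substrate-complementary primer, PCR-amplified and sequenced (HiSeq 4000). Fitness is a variant's read proportion after selection over that before, normalised to wild type.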
For C82A A111G A120C A145C C169U U176A, the reverse-splicing fitness was 0.0161.
In the case of C82A A111G A120C A145C C169U U176C, the reverse-splicing fitness is reported as 0.0138.
With C82A A111G A120C A145C C169U U176G the reverse-splicing fitness was 0.00478.
In the case of C82A A111G A120C A145C U176A, the reverse-splicing fitness is reported as 0.0165.
Work on C82A A111G A120C A145C U176C yielded a reverse-splicing fitness of 0.024.
C82A A111G A120C A145C U176G gave a reverse-splicing fitness of 0.00728.
C82A A111G A120C A145G gave a reverse-splicing fitness of 0.0444.
In the case of C82A A111G A120C A145G C150A, the reverse-splicing fitness is reported as 0.0137.
For C82A A111G A120C A145G C150A C169A, the reverse-splicing fitness was 0.0119.
In the case of C82A A111G A120C A145G C150A C169A U176A, the reverse-splicing fitness is reported as 0.019.
C82A A111G A120C A145G C150A C169A U176C gave a reverse-splicing fitness of 0.0211.
Variant C82A A111G A120C A145G C150A C169A U176G has a reverse-splicing fitness of 0.00941.
In the case of C82A A111G A120C A145G C150A C169G, the reverse-splicing fitness is reported as 0.00915.
C82A A111G A120C A145G C150A C169G U176A gave a reverse-splicing fitness of 0.0211.
For C82A A111G A120C A145G C150A C169G U176C, the reverse-splicing fitness was 0.0242.
Variant C82A A111G A120C A145G C150A C169G U176G has a reverse-splicing fitness of 0.00711.
For C82A A111G A120C A145G C150A C169U, the reverse-splicing fitness was 0.00999.
Variant C82A A111G A120C A145G C150A C169U U176A has a reverse-splicing fitness of 0.0153.
C82A A111G A120C A145G C150A C169U U176C showed a reverse-splicing fitness of 0.0154.
In the case of C82A A111G A120C A145G C150A C169U U176G, the reverse-splicing fitness is reported as 0.00842.
In the case of C82A A111G A120C A145G C150A U176A, the reverse-splicing fitness is reported as 0.0133.
C82A A111G A120C A145G C150A U176C gave a reverse-splicing fitness of 0.0253.
Work on C82A A111G A120C A145G C150A U176G yielded a reverse-splicing fitness of 0.0103.
C82A A111G A120C A145G C150G gave a reverse-splicing fitness of 0.0105.
For C82A A111G A120C A145G C150G C169A, the reverse-splicing fitness was 0.00974.
In the case of C82A A111G A120C A145G C150G C169A U176A, the reverse-splicing fitness is reported as 0.0145.
Variant C82A A111G A120C A145G C150G C169A U176C has a reverse-splicing fitness of 0.0137.
C82A A111G A120C A145G C150G C169A U176G gave a reverse-splicing fitness of 0.00827.
C82A A111G A120C A145G C150G C169G gave a reverse-splicing fitness of 0.00734.
C82A A111G A120C A145G C150G C169G U176A showed a reverse-splicing fitness of 0.0127.
With C82A A111G A120C A145G C150G C169G U176C the reverse-splicing fitness was 0.0115.
With C82A A111G A120C A145G C150G C169G U176G the reverse-splicing fitness was 0.00644.
In the case of C82A A111G A120C A145G C150G C169U, the reverse-splicing fitness is reported as 0.00967.
Variant C82A A111G A120C A145G C150G C169U U176A has a reverse-splicing fitness of 0.0129.
C82A A111G A120C A145G C150G C169U U176C showed a reverse-splicing fitness of 0.0117.
With C82A A111G A120C A145G C150G C169U U176G the reverse-splicing fitness was 0.00802.
With C82A A111G A120C A145G C150G U176A the reverse-splicing fitness was 0.00873.
In the case of C82A A111G A120C A145G C150G U176C, the reverse-splicing fitness is reported as 0.0121.
With C82A A111G A120C A145G C150G U176G the reverse-splicing fitness was 0.00593.
For C82A A111G A120C A145G C150U, the reverse-splicing fitness was 0.0349.
C82A A111G A120C A145G C150U C169A gave a reverse-splicing fitness of 0.012.
With C82A A111G A120C A145G C150U C169A U176A the reverse-splicing fitness was 0.0194.
C82A A111G A120C A145G C150U C169A U176C gave a reverse-splicing fitness of 0.0172.
In the case of C82A A111G A120C A145G C150U C169A U176G, the reverse-splicing fitness is reported as 0.00816.
For C82A A111G A120C A145G C150U C169G, the reverse-splicing fitness was 0.0101.
C82A A111G A120C A145G C150U C169G U176A gave a reverse-splicing fitness of 0.0161.
With C82A A111G A120C A145G C150U C169G U176C the reverse-splicing fitness was 0.0192.
In the case of C82A A111G A120C A145G C150U C169G U176G, the reverse-splicing fitness is reported as 0.00629.
Variant C82A A111G A120C A145G C150U C169U has a reverse-splicing fitness of 0.0147.
For C82A A111G A120C A145G C150U C169U U176A, the reverse-splicing fitness was 0.0141.
C82A A111G A120C A145G C150U C169U U176C showed a reverse-splicing fitness of 0.0148.
In the case of C82A A111G A120C A145G C150U C169U U176G, the reverse-splicing fitness is reported as 0.00671.
In the case of C82A A111G A120C A145G C150U U176A, the reverse-splicing fitness is reported as 0.0156.
In the case of C82A A111G A120C A145G C150U U176C, the reverse-splicing fitness is reported as 0.0258.
In the case of C82A A111G A120C A145G C150U U176G, the reverse-splicing fitness is reported as 0.00916.
Variant C82A A111G A120C A145G C169A has a reverse-splicing fitness of 0.0112.
C82A A111G A120C A145G C169A U176A gave a reverse-splicing fitness of 0.0226.
C82A A111G A120C A145G C169A U176C showed a reverse-splicing fitness of 0.0269.
With C82A A111G A120C A145G C169A U176G the reverse-splicing fitness was 0.00562.
For C82A A111G A120C A145G C169G, the reverse-splicing fitness was 0.00928.
C82A A111G A120C A145G C169G U176A gave a reverse-splicing fitness of 0.0216.
C82A A111G A120C A145G C169G U176C gave a reverse-splicing fitness of 0.0275.
C82A A111G A120C A145G C169G U176G showed a reverse-splicing fitness of 0.0054.
With C82A A111G A120C A145G C169U the reverse-splicing fitness was 0.013.
In the case of C82A A111G A120C A145G C169U U176A, the reverse-splicing fitness is reported as 0.0149.
C82A A111G A120C A145G C169U U176C gave a reverse-splicing fitness of 0.0146.
With C82A A111G A120C A145G C169U U176G the reverse-splicing fitness was 0.00528.
C82A A111G A120C A145G U176A showed a reverse-splicing fitness of 0.0183.
C82A A111G A120C A145G U176C gave a reverse-splicing fitness of 0.0327.
In the case of C82A A111G A120C A145G U176G, the reverse-splicing fitness is reported as 0.00889.
C82A A111G A120C A145U gave a reverse-splicing fitness of 0.0424.
In the case of C82A A111G A120C A145U C150A, the reverse-splicing fitness is reported as 0.0115.
In the case of C82A A111G A120C A145U C150A C169A, the reverse-splicing fitness is reported as 0.0111.
For C82A A111G A120C A145U C150A C169A U176A, the reverse-splicing fitness was 0.0196.
C82A A111G A120C A145U C150A C169A U176C showed a reverse-splicing fitness of 0.0134.
With C82A A111G A120C A145U C150A C169A U176G the reverse-splicing fitness was 0.00712.
In the case of C82A A111G A120C A145U C150A C169G, the reverse-splicing fitness is reported as 0.00948.
Variant C82A A111G A120C A145U C150A C169G U176A has a reverse-splicing fitness of 0.0188.
Work on C82A A111G A120C A145U C150A C169G U176C yielded a reverse-splicing fitness of 0.0245.
Variant C82A A111G A120C A145U C150A C169G U176G has a reverse-splicing fitness of 0.00642.
C82A A111G A120C A145U C150A C169U gave a reverse-splicing fitness of 0.00961.
In the case of C82A A111G A120C A145U C150A C169U U176A, the reverse-splicing fitness is reported as 0.0152.
For C82A A111G A120C A145U C150A C169U U176C, the reverse-splicing fitness was 0.0123.
Variant C82A A111G A120C A145U C150A C169U U176G has a reverse-splicing fitness of 0.00664.
